Experimental data: publication PMC1919509 (Nucleic Acids Research, 2007)

Target: Single-stranded DNA binding protein (SSB), over-expressed recombinant (E. coli, UniProt P0AGE0 1-178)
Test: cross-linking

Sequence of Single-stranded DNA binding protein (SSB), over-expressed recombinant (P0AGE0 whole entry): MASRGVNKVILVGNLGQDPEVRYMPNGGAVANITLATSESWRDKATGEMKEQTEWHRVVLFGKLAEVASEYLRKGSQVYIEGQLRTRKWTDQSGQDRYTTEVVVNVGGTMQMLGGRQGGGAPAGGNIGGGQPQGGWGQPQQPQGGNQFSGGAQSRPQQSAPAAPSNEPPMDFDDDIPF

B1: Exonuclease IX (ExoIX), native recombinant (natural protein, E. coli, UniProt P38506 1-251, looked up)
chain: MAVHLLIVDALNLIRRIHAVQGSPCVETCQHALDQLIMHSQPTHAVAVFDDENRSSGWRHQRLPDYKAGRPPMPEELHDEMPALRAAFEQRGVPCWSTSGNEADDLAATLAVKVTQAGHQATIVSTDKGYCQLLSPTLRIRDYFQKRWLDAPFIDKEFGVQPQQLPDYWGLAGISSSKVPGVAGIGPKSATQLLVEFQSLEGIYENLDAVAEKWRKKLETHKEMAFLCRDIARLQTDLHIDGNLQQLRLVR
With B1 the “stoichiometry N” value was 2 ExoIX molecules per SSB tetramer.
